Earlier results, collected in paper PMC11386291.

Assays:
[1] = target: MKK4 D-motif D-motif (Homo sapiens) (UniProt P45985)
[2] = target: MKK6 D-motif D-motif (Homo sapiens) (UniProt P52564)

Kd [1] [µM]	Kd [2] [µM]	Substance
3.5		JNK1 (from UniProt P45983)
	7.5	p38α (from UniProt Q16539)
